Several values for one entry are separate records, joined by “and”; a condition that tells them apart may be missing. Equal values may be shown once. Read-outs that look alike come from different tables or passages of the source.
Tests used:
[1] = target: T1, SARS-CoV-2 Spike protein-RBD-mFc (Acrobiosystem; SPD-C5259) (SARS-CoV-2; mouse, UniProt P0DTC2 319-541); experiment: SPR (Biacore T200), […], kinetic fit 1:1 binding, […]
T1 construct: domain: RBD

[2] = target: T1, SARS-CoV-2 Spike protein-RBD-mFc …; experiment: as above; remark: listed apart in the source
[3] = target: T1, SARS-CoV-2 Spike protein-RBD-mFc …
[4] = target: epitope sequence SEQ ID No 36 ([…]) (SARS-CoV-2); experiment: RepliTope peptide microarray, Cy5 fluorescence
Method: (§1) The peptide library consisted of 15-meric peptides representing overlapping peptide scans. […] Incubation took place for 1 hour at 30° C. Biotin-labeled secondary antibody (mouse-anti-camelid IgG) was added at 2 μg/mL and incubated for 1 hour. Detection was visualized using Cy5-labeled streptavidin at 0.1 μg/mL incubated for 1 hour. After washing and drying, the slides were scanned with a high-resolution laser scanner at 635 nm to obtain fluorescence intensity profiles. Resulting images were quantified to yield a mean pixel value for each peptide.

[5] = target: epitope sequence SEQ ID No 29 ([…]) (SARS-CoV-2); experiment: RepliTope peptide microarray, Cy5 fluorescence
Method: as §1

[6] = target: epitope sequence SEQ ID No 30 ([…]) (SARS-CoV-2); experiment: RepliTope peptide microarray, Cy5 fluorescence
Method: as §1

[7] = target: epitope sequence SEQ ID No 27 ([…]) (SARS-CoV-2); experiment: RepliTope peptide microarray, Cy5 fluorescence
Method: as §1

[8] = target: epitope sequence SEQ ID No 25 ([…]) (SARS-CoV-2); experiment: RepliTope peptide microarray, Cy5 fluorescence
Method: as §1

[9] = target: epitope sequence SEQ ID No 21 ([…]) (SARS-CoV-2); experiment: RepliTope peptide microarray, Cy5 fluorescence
Method: as §1

[10] = target: epitope sequence SEQ ID No 38 ([…]) (SARS-CoV-2); experiment: RepliTope peptide microarray, Cy5 fluorescence
Method: as §1

[11] = target: epitope sequence SEQ ID No 39 ([…]) (SARS-CoV-2); experiment: RepliTope peptide microarray, Cy5 fluorescence
Method: as §1

[12] = target: epitope sequence SEQ ID No 28 ([…]) (SARS-CoV-2); experiment: RepliTope peptide microarray, Cy5 fluorescence
Method: as §1

B1: hcAb B10 (clone B10), camelid full length IgG2 heavy chain only antibody (antibody, V domains shown)
VH: DVQLQESGGGLVQPGGSLRLSCAASGDINTIGTMNWFRQAPGKGREFVALITSGGTTNYADSVKGRFTVSRDNAKNTVYLQMNSLKPEDTAVYHCYGADHYSDYWGQGTQVTVSS
notes: also called mAb B10
[1]
  Kd: 0.372 nM and 0.385 nM
  koff: 0.000454 s⁻¹ and 0.000459 s⁻¹
  kon: 1.22e+06 M⁻¹ s⁻¹ and 1.19e+06 M⁻¹ s⁻¹
[2]
  Kd: 0.397 nM
  koff: 0.000463 s⁻¹
  kon: 1.17e+06 M⁻¹ s⁻¹
[3]
  Kd: 0.39 nM
[4]
  average signal intensity: 800 mean pixel value
[5]
  average signal intensity: 353 mean pixel value
[6]
  average signal intensity: 644 mean pixel value
[7]
  average signal intensity: 14000 mean pixel value
[8]
  average signal intensity: 750 mean pixel value
[9]
  average signal intensity: 48600 mean pixel value
[10]
  average signal intensity: 18100 mean pixel value
[11]
  average signal intensity: 15200 mean pixel value
[12]
  average signal intensity: 14000 mean pixel value

Source: patent US20250271431A1 (NEW ERA MABS, published 2025)
